In PMC2756588:

T1: Lsb3, P43603
T1 sequence (P43603 385-451, looked up): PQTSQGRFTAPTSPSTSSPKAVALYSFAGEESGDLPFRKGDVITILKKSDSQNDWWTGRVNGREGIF

T2: Boi1, P38041
T2 sequence (P38041 1-86, looked up): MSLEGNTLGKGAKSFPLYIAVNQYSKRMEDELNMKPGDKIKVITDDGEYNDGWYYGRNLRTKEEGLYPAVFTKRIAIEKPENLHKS

T3: Nbp2, Q12163
T3 sequence (Q12163 103-180, looked up): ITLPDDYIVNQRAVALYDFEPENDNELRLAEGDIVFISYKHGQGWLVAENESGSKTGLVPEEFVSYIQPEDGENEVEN

T4: Hse1, P38753
T4 sequence (P38753 208-285, looked up): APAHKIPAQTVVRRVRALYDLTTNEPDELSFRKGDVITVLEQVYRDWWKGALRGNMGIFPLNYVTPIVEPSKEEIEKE

T5: Lsb4, P32793
T5 sequence (P32793 402-468, looked up): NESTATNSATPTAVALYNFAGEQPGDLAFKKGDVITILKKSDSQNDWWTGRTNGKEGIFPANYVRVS

T6: Cdc25, P04821
T6 sequence (P04821 50-136, looked up): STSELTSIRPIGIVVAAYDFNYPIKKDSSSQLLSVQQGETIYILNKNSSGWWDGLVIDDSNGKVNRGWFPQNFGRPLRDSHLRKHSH

T7: Sla1-2, P32790
T7 sequence (P32790 60-140, looked up): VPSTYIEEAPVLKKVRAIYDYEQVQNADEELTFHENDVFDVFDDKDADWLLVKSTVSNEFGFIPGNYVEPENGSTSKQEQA

T8: Bbc1, P47068
T8 sequence (P47068 1-78, looked up): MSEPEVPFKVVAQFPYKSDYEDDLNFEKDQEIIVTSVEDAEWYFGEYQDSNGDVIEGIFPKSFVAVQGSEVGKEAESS

T9: Hof1, Q05080
T9 sequence (Q05080 590-669, looked up): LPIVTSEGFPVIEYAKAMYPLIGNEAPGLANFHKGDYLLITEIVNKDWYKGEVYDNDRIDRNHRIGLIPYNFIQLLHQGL

T10: Boi2, P39969
T10 sequence (P39969 32-116, looked up): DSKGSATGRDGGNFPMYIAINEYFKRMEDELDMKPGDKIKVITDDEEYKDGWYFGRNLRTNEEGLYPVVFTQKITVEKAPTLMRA

T11: Myo5, Q04439
T11 sequence (Q04439 1072-1160, looked up): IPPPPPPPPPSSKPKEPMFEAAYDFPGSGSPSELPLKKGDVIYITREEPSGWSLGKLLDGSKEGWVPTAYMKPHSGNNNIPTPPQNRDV

T12: Cyk3, Q07533
T12 sequence (Q07533 1-83, looked up): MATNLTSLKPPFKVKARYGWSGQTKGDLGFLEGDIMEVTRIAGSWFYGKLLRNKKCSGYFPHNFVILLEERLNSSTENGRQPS

T13: Lsb1, P53281
T13 sequence (P53281 45-122, looked up): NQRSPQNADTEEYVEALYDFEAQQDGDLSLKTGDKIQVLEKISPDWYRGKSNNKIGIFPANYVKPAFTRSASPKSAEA

T14: Abp1, P15891
T14 sequence (P15891 535-592, looked up): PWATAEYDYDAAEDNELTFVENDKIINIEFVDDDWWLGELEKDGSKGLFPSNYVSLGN

T15: Fus1, P11710
T15 sequence (P11710 432-512, looked up): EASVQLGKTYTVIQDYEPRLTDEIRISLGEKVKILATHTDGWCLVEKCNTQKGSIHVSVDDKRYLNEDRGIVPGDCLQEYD

T16: Pex13, P80667
T16 sequence (P80667 295-386, looked up): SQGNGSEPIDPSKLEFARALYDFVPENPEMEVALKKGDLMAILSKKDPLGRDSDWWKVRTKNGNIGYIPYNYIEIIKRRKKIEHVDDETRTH

T17: Bzz1-1, P38822
T17 sequence (P38822 478-572, looked up): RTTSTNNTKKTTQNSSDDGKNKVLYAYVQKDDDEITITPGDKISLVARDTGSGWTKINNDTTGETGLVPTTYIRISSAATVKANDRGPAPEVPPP

T18: Bud14, P27637
T18 sequence (P27637 247-328, looked up): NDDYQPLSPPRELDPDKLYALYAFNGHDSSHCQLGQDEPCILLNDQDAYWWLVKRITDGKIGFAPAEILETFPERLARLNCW

T19: Bzz1-2, P38822
T19 sequence (P38822 568-633, looked up): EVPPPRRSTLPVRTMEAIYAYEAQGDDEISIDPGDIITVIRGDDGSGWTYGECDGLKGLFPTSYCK

T20: Pin3, Q06449
T20 sequence (Q06449 53-122, looked up): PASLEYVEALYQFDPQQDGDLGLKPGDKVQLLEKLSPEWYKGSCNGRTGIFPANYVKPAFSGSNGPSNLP

T21: Sla1-3, P32790
T21 sequence (P32790 344-424, looked up): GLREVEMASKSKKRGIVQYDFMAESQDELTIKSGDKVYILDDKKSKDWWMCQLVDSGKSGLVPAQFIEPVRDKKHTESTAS


Columns and labels:
Assay in all cases: SPOT array
Rvs167, P39743 = details: median of control spots 2707
Chain of Rvs167, P39743 (P39743 419-482): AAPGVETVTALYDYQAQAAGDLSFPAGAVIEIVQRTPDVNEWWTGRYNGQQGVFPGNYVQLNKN

Lsb3, P43603 = biological target: T1, Lsb3, P43603; details: median of control spots 406
Boi1, P38041 = biological target: T2, Boi1, P38041; details: median of control spots 1162
Nbp2, Q12163 = biological target: T3, Nbp2, Q12163; details: median of control spots 357
Hse1, P38753 = biological target: T4, Hse1, P38753; details: median of control spots 1727
GST = details: median of control spots 978
Lsb4, P32793 = biological target: T5, Lsb4, P32793; details: median of control spots 397
Cdc25, P04821 = biological target: T6, Cdc25, P04821; details: median of control spots 969
Sho1, P40073 = details: median of control spots 1148
Chain of Sho1, P40073 (P40073 287-367): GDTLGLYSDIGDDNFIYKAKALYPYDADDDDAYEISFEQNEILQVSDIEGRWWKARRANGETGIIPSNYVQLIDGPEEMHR

Sla1-2, P32790 = biological target: T7, Sla1-2, P32790; details: median of control spots 712
Bbc1, P47068 = biological target: T8, Bbc1, P47068; details: median of control spots 796
Hof1, Q05080 = biological target: T9, Hof1, Q05080; details: median of control spots 4086
Boi2, P39969 = biological target: T10, Boi2, P39969; details: median of control spots 1161
Myo5, Q04439 = biological target: T11, Myo5, Q04439; details: median of control spots 471
Myo3, P36006 = details: median of control spots 468
Cyk3, Q07533 = biological target: T12, Cyk3, Q07533; details: median of control spots 1451
Lsb1, P53281 = biological target: T13, Lsb1, P53281; details: median of control spots 388
Abp1, P15891 = biological target: T14, Abp1, P15891; details: median of control spots 935
Fus1, P11710 = biological target: T15, Fus1, P11710; details: median of control spots 1200
Pex13, P80667 = biological target: T16, Pex13, P80667; details: median of control spots 1341
Bzz1-1, P38822 = biological target: T17, Bzz1-1, P38822; details: median of control spots 4446
Bud14, P27637 = biological target: T18, Bud14, P27637; details: median of control spots 956
Bzz1-2, P38822 = biological target: T19, Bzz1-2, P38822; details: median of control spots 4538
Bem1-2, P29366 = details: median of control spots 4347
Chain of Bem1-2, P29366 (P29366 139-227): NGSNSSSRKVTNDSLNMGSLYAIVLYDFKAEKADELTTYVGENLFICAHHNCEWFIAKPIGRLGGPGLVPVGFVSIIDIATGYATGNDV

Pin3, Q06449 = biological target: T20, Pin3, Q06449; details: median of control spots 2171
Sla1-3, P32790 = biological target: T21, Sla1-3, P32790; details: median of control spots 5475
Bem1-1, P29366 = details: median of control spots 4282
Chain of Bem1-1, P29366 (P29366 55-141): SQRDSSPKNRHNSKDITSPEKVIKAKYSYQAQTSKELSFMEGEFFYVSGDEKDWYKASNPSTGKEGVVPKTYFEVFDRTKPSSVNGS

Row | SPOT intensity (Rvs167, P39743) | SPOT intensity (Lsb3, P43603) | SPOT intensity (Boi1, P38041) | SPOT intensity (Nbp2, Q12163) | SPOT intensity (Hse1, P38753) | SPOT intensity (GST) | SPOT intensity (Lsb4, P32793) | SPOT intensity (Cdc25, P04821) | SPOT intensity (Sho1, P40073) | SPOT intensity (Sla1-2, P32790) | SPOT intensity (Bbc1, P47068) | SPOT intensity (Hof1, Q05080) | SPOT intensity (Boi2, P39969) | SPOT intensity (Myo5, Q04439) | SPOT intensity (Myo3, P36006) | SPOT intensity (Cyk3, Q07533) | SPOT intensity (Lsb1, P53281) | SPOT intensity (Abp1, P15891) | SPOT intensity (Fus1, P11710) | SPOT intensity (Pex13, P80667) | Binder | also measured
1 | 0 | 3 | 2 | 1 | 3 | 0 | 5 | 42 | 67 | 2 | 2 | 6 | 1 | 4 | 7 | 0 | 1 | 26 | 180 | 18 | HHKRRPTTIDVPGLT | SPOT intensity (Bzz1-1, P38822): 0; SPOT intensity (Bud14, P27637): 8; SPOT intensity (Bzz1-2, P38822): 13; SPOT intensity (Bem1-2, P29366): 28; SPOT intensity (Pin3, Q06449): 28; SPOT intensity (Sla1-3, P32790): 4; SPOT intensity (Bem1-1, P29366): 22
2 | 4 | 0 | 8 | 2 | 2 | 0 | 0 | 22 | 31 | 1 | 24 | 1 | 2 | 0 | 0 | 1 | 0 | 16 | 0 | 10 | NAGIRPKFILALNDE | SPOT intensity (Bzz1-1, P38822): 2; SPOT intensity (Bud14, P27637): 26; SPOT intensity (Bzz1-2, P38822): 6; SPOT intensity (Bem1-2, P29366): 0; SPOT intensity (Pin3, Q06449): 3; SPOT intensity (Sla1-3, P32790): 2; SPOT intensity (Bem1-1, P29366): 0
3 | 0 | 0 | 4 | 0 | 0 | 1 | 0 | 18 | 0 | 0 | 0 | 0 | 1 | 0 | 1 | 1 | 0 | 0 | 9 | 11 | GTIARPLFLVVLFFI | SPOT intensity (Bzz1-1, P38822): 0; SPOT intensity (Bud14, P27637): 8; SPOT intensity (Bzz1-2, P38822): 0; SPOT intensity (Bem1-2, P29366): 1; SPOT intensity (Pin3, Q06449): 3; SPOT intensity (Sla1-3, P32790): 0; SPOT intensity (Bem1-1, P29366): 0
4 | 0 | 8 | 0 | 72 | 5 | 1 | 22 | 19 | 180 | 4 | 30 | 0 | 0 | 11 | 13 | 0 | 382 | 225 | 14 | 20 | VTHRLRISIPGITGR | SPOT intensity (Bzz1-1, P38822): 0; SPOT intensity (Bud14, P27637): 12; SPOT intensity (Bzz1-2, P38822): 0; SPOT intensity (Bem1-2, P29366): 4; SPOT intensity (Pin3, Q06449): 46; SPOT intensity (Sla1-3, P32790): 0; SPOT intensity (Bem1-1, P29366): 2
